Reference: US20100285583A1, “COMPOUNDS AND METHODS FOR INHIBITING PLATELET AGGREGATION” (priority 2009, published 2010)

Assays:
[1] = Liposome-binding assay, PtdIns(4,5)P2 liposomes; details: liposomes with PtdIns(4,5)P2
Protocol: (§1) Lipid stocks including sulfatides, PE, PS, and PtdIns(4,5)P2 were dissolved in chloroform:methanol:water (1:2;0.8, 65:35:8, 65:35:4 and 65:35:8, respectively), whereas cholesterol and PC were dissolved in chloroform:methanol (1:1). Sulfatides liposomes were prepared in a weight ratio of 1:1:1:4 of PC:PE:cholesterol:sulfatides. PtdIns(4,5)P2 liposomes were prepared in a percent ratio of 50:20:10:10:10 of PC:PE:PS:cholesterol:PtdIns(4,5)P2. Controls were prepared by adjusting the ratios with PC. Lipid films were generated by lyophilization overnight and hydrated in 20 mM Tris-HCl (pH 6.8), 100 mM NaCl, 2 mM dithiothreitol (DTT) at 1 mg/mL and freeze-thawed 3 times. Liposomes were sonicated and further pelleted and suspended in 4 mg/mL. Ten μg of protein were incubated with 125 μg of total lipids for 20 min at RT. Liposome-bound and free-protein samples were separated by centrifugation and analyzed by SDS-PAGE. Bands were quantified using AlphaImager, and the percentage of total protein each fraction contained was calculated from the total protein.

[2] = system: platelet surface P-selectin; assay: Flow cytometry, platelet surface P-selectin; format: cell-based, human; details: for inhibition of sulfatide induced activation (surface P-selectin): ADP 30 μM, sulfatide liposomes 50 μg/mL
Protocol: (§2) Washed platelets (2.5×10^5 platelets/μL) were kept unactivated or either activated with ADP (30 μM) or TRAP (10 μM). Both unactivated and activated platelets were incubated for 10 min at 23° C. with liposomes (50 μg/mL) either without (liposomes control) or with sulfatides, and N-PTB constructs (1 μM). Reactions were fixed with 1% formalin and incubated with PE- labeled CD62p anti-P-selectin (BioLegend) or FITC-labeled PAC-1 anti-integrin receptor (BD Transduction) antibodies. Bound antibodies were quantified using a FacsAria flow cytometer.
Once present, P-selectin is able to interact with sulfatides which triggers an internal phosphorylation pathway thought to be mediated by p38 (FIG. 12A) (Merten 2005). This cascade results in further de-granulation and an increase in surface P-selectin (Merten 2005). To monitor the de-granulation of platelets, two activation markers were evaluated using fluorescent antibodies specific for P-selectin and the αIIbβ3 integrin. Marker surface expression was quantified using fluorescence-activated cell sorting (FACS) analysis, and measuring the median fluorescent signal of 10,000 platelets. The median signal was used as our reference to quantify the data set as median values are less affected by the wide range of platelet signals and is therefore more representative of the population. When platelets were stimulated with ADP (30 μM) they show increases in both surface P-selecting and αIIbβ3 integrin expression. In the presence of sulfatides (50 μg/mL), in the form of enriched liposomes, the levels of P-selectin and αIIbβ3 integrin were further increased to about 20-25 fold their un-stimulated levels (FIG. 12B). […] The levels of P-selectin and αIIbβ3 integrin were measured among several different individuals and the levels varied greatly between them; however; consistently, sulfatides induced a ˜20 fold increase over un-stimulated platelets and a ˜10 fold increase over ADP stimulated platelets.

Washed platelets = assay: Platelet aggregation under flow assay (microfluidics channel); format: cell-based, human; details: 10 μM, with sulfatide liposomes, shear rate 70 s^−1
Protocol: The microfluidic device consisted in a simple straight channel 500 μm wide, 50 μm deep and 3.62 cm long. A silicon master stamp was fabricated on a <100> silicon substrate following a previously described process (Ross et al. Ann. Rev. Med. 1987, 38:71-79). Flow was driven using a micro-syringe pump (Cole-Parmer) with a 1 mL syringe connected to the channel inlet by 30 cm of Cole-Parmer gauge 20 Teflon tubing. After priming the system with the sample, the pump was set to 0.05 mL/h (equivalent to an average velocity of 0.55 mm/sec in the channel), which is in the range of in vivo blood velocity (0.1-1.5 mm/sec (9)) and causes a shear rate of 70 sec−1. This flow rate was maintained for 1 min prior to the experiments. Platelets flowing through the channel were monitored using an inverted light microscope (DMI 6000B, Leica Microsystems) equipped with a digital camera (DFC420, Leica Microsystems).
Platelet aggregation is mediated by αIIbβ3 integrin interactions with fibrinogen and fibrin linking platelets together (Furie et al., J. Clin. Invest. 2005; 115 (12): 3355-3362; and Andrews et al., Thromb Res. 2004; 114:447-453). P-selectin links aggregated platelets together stabilizing clot formation (Merten 2001). Sulfatides stimulate increased levels of both αIIbβ3 integrin and P-selectin expression on platelets (Merten 2005). […]

[3] = Protein-lipid overlay assay, sulfatides; format: binding; details: Sphingolipid strips, GST-Dab2 PTB
Protocol: Membrane strips (SphingoStrips™) spotted with 100 pmol of sphingolipids were purchased from Echelon Research Laboratories. Membrane strips were incubated with 0.1 μg/ml of the Dab2 PTB domain or its mutants in 20 mM Tris-HCl (pH 8.0), 150 mM NaCl, 0.1% Tween-20 and 3% fatty acid-free bovine serum albumin overnight at 4° C. Following four washes with the same buffer, proteins bound to the membrane strips were probed with rabbit anti-GST antibody (Santa Cruz Biotech). Donkey anti rabbit-horse radish peroxidase (HRP) antibody was obtained from GE Healthcare. Detection was carried out using ECL reagent (Pierce). Also, lipid strips were prepared by spotting 1 μl of either sulfatides or PtdIns(4,5)P2 dissolved in chloroform:methanol:water (1:2:0.8 and 65:35:8, respectively) onto Hybond-C extra membranes (GE Healthcare) and protein binding was monitored as described above. Bound protein was quantified using the AlphaImager program and binding was calculated as a percentage of GST-PTB binding to 100 pmoles of spotted lipid.

[4] = Liposome-binding assay, sulfatide liposomes; details: liposomes with sulfatides
Protocol: as §1

[5] = system: platelet surface αIIbβ3 integrin; assay: Flow cytometry, platelet surface αIIbβ3 integrin; format: cell-based, human; details: ADP 30 μM, sulfatide liposomes 50 μg/mL
Protocol: as §2
Once present, P-selectin is able to interact with sulfatides which triggers an internal phosphorylation pathway thought to be mediated by p38 (FIG. 12A) (Merten 2005). This cascade results in further de-granulation and an increase in surface P-selectin (Merten 2005). To monitor the de-granulation of platelets, two activation markers were evaluated using fluorescent antibodies specific for P-selectin and the αIIbβ3 integrin. Marker surface expression was quantified using fluorescence-activated cell sorting (FACS) analysis, and measuring the median fluorescent signal of 10,000 platelets. The median signal was used as our reference to quantify the data set as median values are less affected by the wide range of platelet signals and is therefore more representative of the population. […]

IC50 ([2]; titration 1 nM-1 μM, ADP stimulated platelets, logarithmic curve fit, read-out: IC50, inhibition of sulfatide induced P-selectin marker expression): 121 nM
binding to sphingolipids [3]: preferentially bound to sulfatides
sulfatide binding [4]: bound to sulfatide-enriched liposomes
B1: N-PTB: N-terminal phosphotyrosine binding domain (residues 1-241) of human Disabled-2 (Dab2), expressed as GST-fusion in E. coli (protein)
chain: MSNEVETSATNGQPDQQAAPKAPSKKEKKKGPEKTDEYLLARFKGDGVKYKAKLIGIDDVPDARGDKMSQDSMMKLKGMAARGRSQGQHKQRIWVNISLSGIKIIDEKTGVIEHEHPVNKISFIARDVTDNRAFGYVCGGEGQHQFFAIKTGQQAEPLVVDLKDLFQVIYNVKKKEEEKKKIEEASKAVENGSEALMILDDQTNKLKSGVDQMDLFGDMSTPPDLNSPTESKDILLVDLNS
PtdIns(4,5)P2 binding [1]: bound to PtdIns(4,5)P2-containing liposomes
inhibition of sulfatide induced activation (surface P-selectin) [2]: remained at ADP stimulated levels
inhibition of sulfatide induced activation (surface P-selectin) ([2]; listed as N-PTB^4M): no inhibition of sulfatide induced activation
inhibition of sulfatide induced platelet aggregation under flow (Washed platelets): returned to the size of untreated platelets
inhibition of sulfatide induced platelet aggregation under flow (Washed platelets; listed as N-PTB^4M): limited inhibition of platelet aggregate size but not adhesion
inhibition of sulfatide induced expression of αIIbβ3 integrin [5]: inhibition of sulfatide induced expression
inhibition of sulfatide induced expression of αIIbβ3 integrin ([5]; listed as N-PTB^4M): no inhibition
